Data: the domain aggregation screens of Martell et al. (2025)

Test: soluble fraction after stress (log2 fold change); higher = more stays soluble; pooled small domains, quantitative proteomics
Settings: stress: 50 degC
How it was run: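 Pooled custom libraries of small protein domains were each held under stress at 50°C. The read-out, high-throughput quantitative proteomics, tracked how much of each protein stayed soluble. This is reported as a base-two log fold change used to indicate aggregation propensity. Higher values mean more protein remains in solution.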

Sequence	soluble fraction (log2)
HMNYYDLLGIPKSATKQQIRKAYRTKAKEFHPDVNGPFNSHMHFLLLKQAYETLMDANMRHVYDMALIS	-1.35
HMPSKTFYNLSQEKQQKIIDASEKEFSNNLYQDVSLNQIIKNSNISRGSFYMYFTDKEDLYFYLLNEY	0.275
HMSFDENEALRKALDVFWEKGYDGTSLSDLTEAMGINKPSLYATFGNKDQLFLKAIEMYENR	-0.992
HMTKRTVKSVARKIADFNRERHRMPTYEEMLTLLAVRSKSVVHFWMNKLLQEGILEKDESGHLTFV	-0.124
HMTEKMILKWKEALERMNDDFTTKDWLNVVIHEMGKSERTAYGWLSDMKRSGIIKDLGYGSWLKVLE	-0.738
HMPPAPGHDLTEREREVLRLLVEGLSNQEISDRLVISQSTVKNHVSSVLSKLDAANRAEAVALALKNQL	0.00346
HMIKITLPDGSVKEYKKGITPAEVAQSISEGLARNVISASYNGKTIETVTPLTTDGSLVLYTWDSPEGK	0.193
HMYYSERILTILEERGISPYRVSKETGISQSVFSNWKRKPTSRITAANLERLADYLGLPVEVLTG	-3.45
HMIISMKKGATPQEISHVRKLIEELGYKVHESQGSERMVFGAIGDERSKHRLTSLEAQPGVEKVIPILA	0.191
HMPVNEEFKRLIDKIKYEFSINQAQISERLGVKSTYLSDMINGRVPYNESMQKKIHEVFHIG	-0.0665
HMLENSLDHIEGIGPKTKDTLLTYFKSVSKIKSANPSILAELIGAAKTKILLAAFEKEKTTS	-0.017
HMEKKTILIPPVITVRALAEISQIPVNRLLQELIKNGVFTSINEKIDFDTAVIIGADLNLDIQLL	-0.95
HMLQKVELSDNEKFIFDSLQKEQKMALLRLKELVNLSNKAWDVSVKNLTKQGLVKVTKIDEELLIEI	-0.949
HMTIDNPESQKIMDMVPFFFQSRNYDEAIEALTYVIEQEPQFSEAYNKRATFYFMMGDLENSMKDIEITLA	-0.401
HMTVTMADISQAYNEKRYLTTISLSNTYLTFAKPTTELLSIRYRTYFIIGKYAESLTEIAKL	-0.173
HMQQNYREMHKVKKGETLFGIARRYEITVDQLIKANPDMNAVGYELKKGDYIFIPYPDGQKP	-0.13
HMTMQTAEQESRLEQKLIDLSVGIDRFEGYSRPHGQLIASIADRIGTRLGMAAHDRFYMQQAAL	0.107
